Drawing on paper PMC7025507, this text covers stoichiometry N for one substance.

The test deals with hStau1^55 SSM/RBD5 construct (human). In words: SEC.

For “hStau1^55 SSM/RBD5 construct (domain or fragment)”, the stoichiometry N (as a rule, a count of units in the complex or per binding partner) stood at 2.
